Columns and labels:
[1] = target: T1, τ131 (Tfc4), τA subunit of endogenous S. cerevisiae TFIIIC (S. cerevisiae, UniProt P33339 1-1025); test: cross-linking; XL-MS: purified endogenous TFIIIC (30 μg, 1 μg/μl) cross-linked with H12/D12 DSS to 2 mM, 40 min at 37 °C; ld-score >25; settings: both partners purified
T1 construct: τ131 (Tfc4), subunit of S. cerevisiae TFIIIC, endogenous subunit in the purified complex; Endogenous subunit; source: endogenous, purified from S. cerevisiae strain SC2342 as part of TFIIIC (TAP tag on τ60)
T1 sequence (looked up): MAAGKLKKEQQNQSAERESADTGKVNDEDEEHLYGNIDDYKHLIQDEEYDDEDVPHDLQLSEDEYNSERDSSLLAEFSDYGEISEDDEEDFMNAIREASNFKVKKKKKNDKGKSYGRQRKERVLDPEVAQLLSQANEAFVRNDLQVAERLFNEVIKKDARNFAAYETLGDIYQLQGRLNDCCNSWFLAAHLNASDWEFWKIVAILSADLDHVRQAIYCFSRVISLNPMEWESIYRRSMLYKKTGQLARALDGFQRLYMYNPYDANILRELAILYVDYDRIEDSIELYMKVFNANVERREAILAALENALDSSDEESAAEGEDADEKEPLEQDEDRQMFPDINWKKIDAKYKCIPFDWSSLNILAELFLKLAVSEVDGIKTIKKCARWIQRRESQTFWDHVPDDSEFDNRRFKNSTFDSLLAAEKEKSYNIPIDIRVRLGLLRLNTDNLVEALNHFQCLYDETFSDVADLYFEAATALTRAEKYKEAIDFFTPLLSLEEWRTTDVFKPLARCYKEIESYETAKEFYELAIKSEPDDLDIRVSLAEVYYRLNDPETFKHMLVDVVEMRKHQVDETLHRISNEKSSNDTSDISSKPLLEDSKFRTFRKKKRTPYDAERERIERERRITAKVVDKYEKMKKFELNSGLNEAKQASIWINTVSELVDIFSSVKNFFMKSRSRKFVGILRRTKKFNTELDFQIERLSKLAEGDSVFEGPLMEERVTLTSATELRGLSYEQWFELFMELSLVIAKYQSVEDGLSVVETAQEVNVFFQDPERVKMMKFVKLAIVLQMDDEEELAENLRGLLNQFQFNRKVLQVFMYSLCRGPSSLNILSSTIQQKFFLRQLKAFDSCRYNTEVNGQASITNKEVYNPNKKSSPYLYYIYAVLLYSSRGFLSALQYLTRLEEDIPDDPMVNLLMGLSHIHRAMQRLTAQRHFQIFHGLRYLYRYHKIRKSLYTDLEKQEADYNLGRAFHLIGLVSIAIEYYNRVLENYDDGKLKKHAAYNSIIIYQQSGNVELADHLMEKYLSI

[2] = target: T2, τ138 (Tfc3), τB subunit of endogenous S. cerevisiae TFIIIC (S. cerevisiae, UniProt P34111 1-1160); test: as above; settings: both partners purified
T2 construct: τ138 (Tfc3), subunit of S. cerevisiae TFIIIC, endogenous subunit in the purified complex; source: endogenous, purified from S. cerevisiae strain SC2342 as part of TFIIIC (TAP tag on τ60)
T2 sequence (looked up): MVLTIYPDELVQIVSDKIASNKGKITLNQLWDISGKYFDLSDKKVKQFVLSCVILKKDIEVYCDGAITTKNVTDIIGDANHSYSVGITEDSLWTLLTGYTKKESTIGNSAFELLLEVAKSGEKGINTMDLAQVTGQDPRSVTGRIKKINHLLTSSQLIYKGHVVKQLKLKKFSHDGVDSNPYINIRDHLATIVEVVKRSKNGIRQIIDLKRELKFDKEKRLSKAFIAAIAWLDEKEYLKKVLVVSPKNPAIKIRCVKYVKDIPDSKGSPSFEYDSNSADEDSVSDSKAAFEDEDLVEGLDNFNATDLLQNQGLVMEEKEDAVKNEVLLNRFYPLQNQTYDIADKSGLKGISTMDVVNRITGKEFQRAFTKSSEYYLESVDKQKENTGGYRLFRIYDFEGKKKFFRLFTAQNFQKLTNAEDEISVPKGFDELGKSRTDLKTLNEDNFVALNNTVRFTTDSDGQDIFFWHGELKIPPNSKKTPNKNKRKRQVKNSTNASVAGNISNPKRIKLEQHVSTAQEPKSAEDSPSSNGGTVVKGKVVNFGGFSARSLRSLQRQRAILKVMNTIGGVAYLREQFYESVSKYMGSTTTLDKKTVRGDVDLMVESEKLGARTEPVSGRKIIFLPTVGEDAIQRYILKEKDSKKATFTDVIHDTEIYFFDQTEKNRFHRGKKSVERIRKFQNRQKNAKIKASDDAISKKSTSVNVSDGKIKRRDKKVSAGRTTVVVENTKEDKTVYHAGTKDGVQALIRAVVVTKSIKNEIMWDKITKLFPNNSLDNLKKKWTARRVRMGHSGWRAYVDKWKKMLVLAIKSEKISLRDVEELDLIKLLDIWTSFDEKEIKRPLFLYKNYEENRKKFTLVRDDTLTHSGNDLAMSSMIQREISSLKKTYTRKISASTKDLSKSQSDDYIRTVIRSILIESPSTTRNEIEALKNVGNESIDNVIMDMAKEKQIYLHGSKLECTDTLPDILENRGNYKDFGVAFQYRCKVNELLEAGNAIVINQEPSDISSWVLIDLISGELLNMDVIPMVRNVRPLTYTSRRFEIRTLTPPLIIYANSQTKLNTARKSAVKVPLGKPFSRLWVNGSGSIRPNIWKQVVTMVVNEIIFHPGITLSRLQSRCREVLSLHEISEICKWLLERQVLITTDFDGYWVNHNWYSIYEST

B1: τ95 (Tfc1), τA subunit of endogenous S. cerevisiae TFIIIC (natural protein, UniProt P32367 1-649, looked up)
chain: MPVEEPLATLSSIPDSSADQAPPLIADEFTLDLPRIPSLELPLNVSTKHSSIQKAIKMCGGIEKVKEAFKEHGPIESQHGLQLYLNDDTDSDGSKSYFNEHPVIGKRVPFRDESVILKVTMPKGTLSKNNNSVKDSIKSLKDSNKLRVTPVSIVDNTIKFREMSDFQIKLDNVPSAREFKSSFGSLEWNNFKSFVNSVPDNDSQPQENIGNLILDRSVKIPSTDFQLPPPPKLSMVGFPLLYKYKANPFAKKKKNGVTEVKGTYIKNYQLFVHDLSDKTVIPSQAHEQVLYDFEVAKKTKVYPGTKSDSKFYESLEECLKILRELFARRPIWVKRHLDGIVPKKIHHTMKIALALISYRFTMGPWRNTYIKFGIDPRSSVEYAQYQTEYFKIERKLLSSPIVKKNVPKPPPLVFESDTPGGIDSRFKFDGKRIPWYLMLQIDLLIGEPNIAEVFHNVEYLDKANELTGWFKELDLVKIRRIVKYELGCMVQGNYEYNKYKLKYFKTMLFVKESMVPENKNSEEGMGVNTNKDADGDINMDAGSQMSSNAIEEDKGIAAGDDFDDNGAITEEPDDAALENEEMDTDQNLKVPASIDDDVDDVDADEEEQESFDVKTASFQDIINKIAKLDPKTAETMKSELKGFVDEVDL
notes: τ95 (Tfc1), subunit of S. cerevisiae TFIIIC, endogenous subunit in the purified complex; source: endogenous, purified from S. cerevisiae strain SC2342 as part of TFIIIC (TAP tag on τ60)
**Q.** Does B1 bind [1]?
**A.** Result: binds

**Q.** Does B1 bind [2]?
**A.** Result: binds
